Assays:
[1] = target: TCB (T-cell bispecific format) drug antibody; test: bridging ELISA, drug-Bi and drug-Dig, human pooled serum, binder 16 ng/mL assay / 312.5 ng/mL matrix
[2] = target: non-targeted IgG-IL2 (interleukin-2 fused to the C-terminus of a heavy chain of a germline antibody, which is not binding to a target); test: as above
[3] = target: targeted IgG-IL2 (interleukin-2 fused to the C-terminus of a heavy chain of an antibody specifically binding to a therapeutic target); test: as above
[4] = target: non-targeted IgG-IL2 (interleukin-2 fused to the C-terminus of a heavy chain of a germline antibody, which is not binding to a target); test: bridging ELISA, IgG-IL2-Bi and -Dig, binder 1.0 ng/mL assay / 20 ng/mL matrix
[5] = target: drug antibody (capture and tracer of the bridging immunoassay of FIGS. 2, 7 and 8; not named); test: bridging immunoassay, drug antibody as capture and tracer, binder at 80 ng/ml
[6] = target: TCB (T-cell bispecific format) drug antibody; test: bridging ELISA, drug-Bi and drug-Dig, human pooled serum, binder 0.24 ng/mL assay / 4.9 ng/mL matrix
[7] = target: non-targeted IgG-IL2 (interleukin-2 fused to the C-terminus of a heavy chain of a germline antibody, which is not binding to a target); test: as above
[8] = target: targeted IgG-IL2 (interleukin-2 fused to the C-terminus of a heavy chain of an antibody specifically binding to a therapeutic target); test: as above
[9] = target: TCB (T-cell bispecific format) drug antibody; test: bridging ELISA, drug-Bi and drug-Dig, human pooled serum, binder 63 ng/mL assay / 1250 ng/mL matrix
[10] = target: non-targeted IgG-IL2 (interleukin-2 fused to the C-terminus of a heavy chain of a germline antibody, which is not binding to a target); test: as above
[11] = target: targeted IgG-IL2 (interleukin-2 fused to the C-terminus of a heavy chain of an antibody specifically binding to a therapeutic target); test: as above
[12] = target: TCB (T-cell bispecific format) drug antibody; test: bridging ELISA, drug-Bi and drug-Dig, human pooled serum, binder 2.0 ng/mL assay / 39 ng/mL matrix
[13] = target: non-targeted IgG-IL2 (interleukin-2 fused to the C-terminus of a heavy chain of a germline antibody, which is not binding to a target); test: as above
[14] = target: targeted IgG-IL2 (interleukin-2 fused to the C-terminus of a heavy chain of an antibody specifically binding to a therapeutic target); test: as above

signal [AU] [1]: 1.19 AU
signal [AU] [2]: 0.23 AU
signal [AU] [3]: 0.894 AU
signal [AU] [4]: 0.114 AU
signal-to-noise ratio (S/N) [5]: 4.5
signal [AU] [6]: 0.0645 AU
signal [AU] [7]: 0.045 AU
signal [AU] [8]: 0.055 AU
signal [AU] [9]: 2.86 AU
signal [AU] [10]: 0.77 AU
signal [AU] [11]: 2.63 AU
signal [AU] [12]: 0.195 AU
signal [AU] [13]: 0.0615 AU
signal [AU] [14]: 0.148 AU
B1: multivalent anti-PG antibody derived from clone 1.7.24 (mixed Pool 2, 3, 4) (antibody, V domains shown)
VH: EVKLLESGGGLVQPGGSLKLSCAASGFDFSRYWMNWVRQAPGKGLEWIGEITPDSSTINYTPSLKDKFIISRDNAKNTLYLQMIKVRSEDTALYYCVRPYDYGAWFASWGQGTLVTVSA
VL: QAVVTQESALTTSPGETVTLTCRSSTGAVTTSNYANWVQEKPDHLFTGLIGGTNKRAPGVPARFSGSLIGDKAALTITGAQTEDEAIYFCALWYSNHWVFGGGTKLTVL
modifications: lysine amines derivatised with SATP or MHS and cross-linked (sites not given)

Source: patent US20240410900A1
